# Laboratory results published in IntAct's records for PubMed 21169485.
# B1: Lipopolysaccharide export system protein LptC (Escherichia coli (strain K12)), P0ADV9 (parent)
# chain: MSKARRWVIIVLSLAVLVMIGINMAEKDDTAQVVVNNNDPTYKSEHTDTLVYNPEGALSYRLIAQHVEYYSDQAVSWFTQPVLTTFDKDKIPTWSVKADKAKLTNDRMLYLYGHVEVNALVPDSQLRRITTDNAQINLVTQDVTSEDLVTLYGTTFNSSGLKMRGNLRSKNAELIEKVRTSYEIQNKQTQP
# partner: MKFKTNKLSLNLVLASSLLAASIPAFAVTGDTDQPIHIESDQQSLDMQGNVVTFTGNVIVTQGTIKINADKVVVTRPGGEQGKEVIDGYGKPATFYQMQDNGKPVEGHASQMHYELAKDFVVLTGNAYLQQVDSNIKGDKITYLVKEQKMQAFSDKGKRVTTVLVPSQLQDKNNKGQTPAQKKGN
# Variants of: B1
# Settings: with lpta_ecoli lptA
row,effect of a mutation on the interaction,Variant
1,disrupting interaction,G153R
